From publication PMC3873559 come the findings set out here.

Chain of human factor Xa (plasma-derived) (human) (P00742 whole entry): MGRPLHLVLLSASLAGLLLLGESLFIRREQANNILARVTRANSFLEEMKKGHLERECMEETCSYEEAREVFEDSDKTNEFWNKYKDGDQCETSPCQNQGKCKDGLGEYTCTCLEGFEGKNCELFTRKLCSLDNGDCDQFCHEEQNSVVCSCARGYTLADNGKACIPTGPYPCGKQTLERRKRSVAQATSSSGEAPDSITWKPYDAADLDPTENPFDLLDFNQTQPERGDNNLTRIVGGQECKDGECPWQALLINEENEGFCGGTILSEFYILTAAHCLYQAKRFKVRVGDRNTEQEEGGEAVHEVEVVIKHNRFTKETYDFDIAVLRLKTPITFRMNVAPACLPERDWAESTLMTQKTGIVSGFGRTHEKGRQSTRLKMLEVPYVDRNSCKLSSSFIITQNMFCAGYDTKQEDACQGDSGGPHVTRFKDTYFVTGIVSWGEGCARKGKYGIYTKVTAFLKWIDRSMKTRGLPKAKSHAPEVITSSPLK

The experiment addresses human factor Xa (plasma-derived) (human). Put plainly: kinetic titration of prothrombinase (thrombin generation read with a chromogenic substrate); apparent KD; limiting fXa (15 pM), fV/fVa species varied (30 pM to 10 nM; 0 to 15 nM by the legend of Fig. 4), PCPS vesicles 20 μM, DAPA 3 μM, prothrombin 1.4 μM, Spectrozyme-TH 0.4 mM; fitted to a one binding site model.
Regarding “fVa purified from pooled fresh frozen normal plasma (fVa^plasma) (from UniProt P12259 29-737; P12259 1574-2224) (complex)”, the Kd turned out to be 0.51 nM.
To “recombinant human fV with Arg1018 and Arg1545 mutated to glutamine following incubation with thrombin (fVa^RQQ) (from UniProt P12259 29-737; P12259 738-2224) (complex)” belongs 0.92 nM.
Take “recombinant human fV with region 1000–1008 deleted and the thrombin activation cleavage sites (Arg709/Arg1018/Arg1545) mutated to glutamine (fV^ΔB9/Q3) (from UniProt P12259 29-2224) (natural protein)”: the Kd was determined as 0.73 nM.
For “wild type recombinant human fV incubated with thrombin (fVa^WT) (from UniProt P12259 29-737; P12259 1574-2224) (complex)”, the Kd is 0.28 nM.
